According to US7314724B2, “Therapeutic applications of laminin and laminin-derived protein fragments” (University of Washington, priority 1996, dated 2008):

Biological target: T1, biotinylated Aβ (1-40) (Homo sapiens, UniProt P05067)
T1 construct: Aβ (1-40) was biotinylated according to the manufacturer's protocol (Pierce, Rockford, Ill.)
Assay: Aβ ligand blot of undigested and V8-, trypsin- or elastase-digested EHS laminin
Format: binding
Settings: 2 μM biotinylated Aβ (1-40), SDS-PAGE under non-reducing conditions
Protocol: For these experiments, Aβ (1-40) was biotinylated according to the manufacturer's protocol (Pierce, Rockford, Ill.). For the ligand studies, intact EHS laminin was left undigested, or digested with V8 or trypsin (Sigma Chemical Company, St. Louis, Mo., USA). More specifically, 2 μg of trypsin or V8 protease in 2 μl of 50 MM Tris-HCl buffer (pH 8.0) were added to 50 μl of laminin (50 μg)(in the same buffer) and incubated overnight at 37° C. The next day, 10 μl of protease-digested laminin (or undigested laminin) was mixed with 10 μl of 2× sodium dodecyl sulfate polyacrylamide gel electrophoresis (SDS-PAGE) sample buffer, and heated for 5 minutes in a boiling water bath. SDS-PAGE was performed according to the method of Laemmli (Laemmli, U.K. Nature 227:680-685, 1970), or according to the method of Schägger and Jagow (Schägger and Jagow, Anal. Biochem. 166:368-379, 1987) using a Mini-Protean II electrophoresis system (Biorad) with precast 4-15% Tris-Glycine or 10-20% tricine polyacrylamide gels, respectively, and under non-reducing conditions. Electrophoresis occurred at 200V for 45 minutes along with pre-stained molecular weight standards. After SDS-PAGE (10-20% tricine or 4-15% Tris-Glycine gels) was performed as described above, the separated laminin and its fragments (total protein of 10 μg/lane) were transferred to polyvinylidine difluoride membrane (PVDF) using a Mini transblot electrophoresis transfer cell (Biorad, Hercules, Calif., U.S.A.). Electrotransfer was performed at 100V for 2 hours. Following transfer, membranes were rinsed with methanol and dried. The fragment(s) of laminin involved in binding to Aβ were then detected by using biotinylated-Aβ (1-40), as described above. Blots were probed for 2 hours with 2 μM biotinylated Aβ (1-40) in TTBS. The membranes were then rinsed three times (10 seconds each) with TTBS, probed for 30 minutes with strepavidin alkaline phosphatase conjugate (Vectastain), rinsed again (as described above), and followed by the addition of an alkaline phosphatase substrate solution (Vectastain). Following color development, the reaction was stopped by flushing the membranes with double distilled water. In the next set of studies, we determined whether small fragment(s) of laminin generated by elastase digestion would bind to Aβ. […] For these experiments, Aβ (1-40) was biotinylated according to the manufacturer's protocol (Pierce, Rockford, Ill.). For the ligand studies, intact EHS laminin was left undigested, or digested with elastase (Sigma Chemical Company, St. Louis, Mo., USA). For elastase digestion, 2 μg of elastase in 8 μl of 50 mM Tris-HCl buffer (pH 8.0) was added to 50 μl of laminin (50 μg)(in the same buffer) and incubated for 1.5 hours or 2.5 hours at 37° C. In addition, as a control, 2 μg of elastase in 50 μl of 50 mM Tris-HCl buffer (pH 8.0) was incubated for 2.5 hours at 37° C. Following the appropriate incubation times as described above, 10 μl of each of the above incubations were mixed with 10 μl of 2× SDS-PAGE electrophoresis sample buffer, and heated for 5 minutes in a boiling water bath. SDS-PAGE was performed according to the method of Laemmli (Laemmli, Nature 227:680-685, 1970) using a Mini-Protean II electrophoresis system with precast 4-15% Tris-Glycine polyacrylamide gels, and under non-reducing conditions. Electrophoresis occurred at 200V for 45 minutes along with pre-stained molecular weight standards (Biorad). After SDS-PAGE was performed as described above, the separated laminin fragments were transferred to PVDF using a Mini transblot electrophoresis transfer cell (Millipore, Bedford, Mass., U.S.A.). Electrotransfer was performed at 100V for 2 hours. Following transfer, membranes were rinsed with methanol, dried and cut into two equal parts which were used for Aβ ligand blotting, or Coomassie blue staining and subsequent amino acid sequencing. The fragment(s) of laminin involved in binding to Aβ were then detected by using biotinylated-Aβ (1-40), as described above. […]

T1 sequence (P05067 672-711 limits assumed): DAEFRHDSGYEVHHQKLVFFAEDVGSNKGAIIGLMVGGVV

laminin: Engelbreth-Holm-Swarm (EHS) mouse tumor laminin (Sigma); 850 kDa basement membrane glycoprotein of A, B1 and B2 chains
interaction with biotinylated Aβ (1-40) on ligand blot, in words: most prominent Aβ-interaction
